The text below walks through data of the DeepSol protein solubility set.

The data set is described as follows: soluble on expression in E. coli; label from the status in PepcDB or PDB records.
On to “MGSSHHHHHHGGTGENLYFQGGSGKIFSTLGNPGTLAATKPKKGEVVLASPEATVSKYKEAIKQHKKALKELHACTERFTHALAAVAASLQLLTSDTHIPVMVQSSGALASGIEEVQDGVLLQDLMEELDYSLSTRFKQIAEDQRELKESRERKSKAERTLMLLRSQCDKLQLKKDVDAKVQALYLAKTQKRDEHEVECTRLKAEFEDTFQDFTKRFGILVYEDMKGLTVHLHRVLSALSYQVRKCKDNIMAHPITPKPIAEMS”, for which the “soluble on expression in E. coli” value is given as “not soluble”.
With “MGSSHHHHHHGGTGENLYFQGGSGSSVTPTIPFKAWLKLHAKAICQALPLSLLIVVEARDLYYRATWDVAPVPPSKFEVGDVIAVCNRWYTLPTWSHVVYSWLSKVLLKSCWDDVGVISSVKNGTPHILYVDFHGVHEQPLATFLETRCPRGAAVRKLRRDEGVPSPSPAIADLFRKEVEMISVEPWFLFSASMRGGNEHKYYEFCVRMHEQRCKIRSMLQRRQSRPAIEAQQTSLKEMEVMRQHLAKFVEPVTHFHLYNGSLVASFFATYGLLDREMPSPSRYVPQDFAHTIPFLGATTLDEPIVFFRN”, the “soluble on expression in E. coli” value is “not soluble”.
In the case of “MGSSHHHHHHGKTIFVIVPTNEEQVAFLEALAKQDELNFDWQNPPTEPGQPVVILIPSDMVEWFLEMLKAKGIPFTVYVEEGGSENLYFQGGGGGGAATVTDLKNAIKNELYRIDIGMTDFYSSLSVSPTVQQQYCTAAITSRAAGLSLTMESLSSPYGVLATEYGFLIYKDTFVFGPSIKLIGASAWPNGTLTTDIQSGRHILVPYLTNTVVFVTGVIENEDGRQNILPMMRLMMVDSYLCAHMHMNVANLYRKTFRTAFAELA”, the “soluble on expression in E. coli” value is “not soluble”.
Turning to “MGSSHHHHHHGKTIFVIVPTNEEQVAFLEALAKQDELNFDWQNPPTEPGQPVVILIPSDMVEWFLEMLKAKGIPFTVYVEEGGSENLYFQGGGGGGCCSLLFFVYIAFSLIHTLHHLFLFSECNISADERMDVPSEDYDVSIMIKAIHEVQDVLTSRQFATFSEVDTEIGKTLKRYEAFGDGFERFHVNLTKDALQSNDLQKSLKDMDKRCQDRLRDCASSQKDQINDILPFIRNTSSILVHGSGNLLALTIACSIQEHEGVRFYICEGRPARKGYPHGSGEQLLEKVLATPEGMRLKDKLHKYCTIVPDSGVSSVMNSVDFVIMGAYCVTEHGGLVHSTGSLQIAIVAAFRNVPCYVLCETFKFAHIFPLSTDDLKQPENGAGEVVPLVEFVPPSMITLIFSEQGIMPPSAVADEMFRFHTAPSAPGKRR”, the “soluble on expression in E. coli” value is reported as “not soluble”.
Then “MGSSHHHHHHGKTIFVIVPTNEEQVAFLEALAKQDELNFDWQNPPTEPGQPVVILIPSDMVEWFLEMLKAKGIPFTVYVEEGGSENLYFQGGGGGGMDLDAFLSKNNKKSSKKVAKKSADEAALGGFGLETVPRVSTAAAKPITVANTGGSDASAAAGTASPLPAPEKTVAAPVVAVNLNFAGTTRSAKTWDAVKASQDSKRQEEVQAAAARKAKEEAEAAERKAAAGGDDDEVQLPESSPKETKVAKFVARGHRNATGAIGGGEGGAAAAASGRFAPHTQGLSLENLPTLEETFGNARKPSQSTASQSQSQQQPMSLPSQEQNGESAPAATPQESSSTPTSATAVAGSNKYVPPSKSSSTMESSTTLPSSPMPTRGSAGGSSAAAYRPPSGSSGVYKPPSMGAYRPPNASAGEAYKPPAPSAPSSGAGAYKPPTPGGASAGAYRPPASTGEAYKPPSSGGAGVYKPPSAGNSNAGAFKPSTAAGFSADTYKPPVAGSGSSAGAYKPPSAGGSAGVYKPPSKREA”, with “soluble”.
Turning to “MGSSHHHHHHHSSGRENLYFQGHMEGVRWAFSCGTWLPSRAEWLLAVRSIQPEEKERIGQFVFARDAKAAMAGRLMIRKLVAEKLNIPWNHIRLQRTAKGKPVLAKDSSNPYPNFNFNISHQGDYAVLAAEPELQVGIDIMKTSFPGRGSIPEFFHIMKRKFTNKEWETIRSFKDEWTQLDMFYRNWALKESFIKAIGVGLGFELQRLEFDLSPLNLDIGQVYKETRLFLDGEEEKEWAFEESKIDEHHFVAVALRKPDGSRHQDVPSQDDSKPTQRQFTILNFNDLMSSAVPMTPEDPSFWDCFCFTEEIPIRNGTKSLESG”, the “soluble on expression in E. coli” value was “soluble”.
Take “MGSSHHHHHHSQDPDPMQSFADAKEFFQYSAGQWQSRRVTHHLPFRRAESGGSNIQVETLEKDDPRIIEICQMHDMDASLSVGGSYVTWAGTMQWDKDDENHEGSTVFALIPDADNPRQGKLLRERGYAEIVPVAGEYHLDHEDGLVLTTEYETMTIYERFWFANPDLRLRTSTVKRFGGFNTTTFCMEERIQTSPVTATAAAETNPLYAISGW”: the “soluble on expression in E. coli” value is recorded as “soluble”.
Take “MGSSHHHHHHSQDPLVPRGSGSDYIIKEKTVLLQKKDSEGFGFVLRGAKAQTPIEEFTPTPAFPALQYLESVDEGGVAWRAGLRMGDFLIEVNGQNVVKVGHRQVVNMIRQGGNTLMVKVVMVTRHPDMDEA”: the “soluble on expression in E. coli” value is given as “soluble”.
Turning to “MGSSHHHHHHSQDPTVPAQLQFSAKTLDGHDFHGESLLGKPAVLWFWAPWCPTCQGEAPVVGQVAASHPEVTFVGVAGLDQVPAMQEFVNKYPVKTFTQLADTDGSVWANFGVTQQPAYAFVDPHGNVDVVRGRMSQDELTRRVTALTSR”, the “soluble on expression in E. coli” value is “soluble”.
Then “MGSSHHHHHHSSENLYFQGHMSDLPRISVAAPRLDGNERDYVLECMDTTWISSVGRFIVEFEKAFADYCGVKHAIACNNGTTALHLALVAMGIGPGDEVIVPSLTYIASANSVTYCGATPVLVDNDPRTFNLDAAKLEALITPRTKAIMPVHLYGQICDMDPILEVARRHNLLVIEDAAEAVGATYRGKKSGSLGDCATFSFFGNKIITTGEGGMITTNDDDLAAKMRLLRGQGMDPNRRYWFPIVGFNYRMTNIQAAIGLAQLERVDEHLAARERVVGWYEQKLARLGNRVTKPHVALTGRHVFWMYTVRLGEGLSTTRDQVIKDLDALGIESRPVFHPMHIMPPYAHLATDDLKIAEACGVDGLNLPTHAGLTEADIDRVIAALDQVLV”, with “soluble”.
“MGSSHHHHHHSSGLEVLFQGPLHMRTQGIKPRIREILSKELPEELVKLLPKRWVRIGDVLLLPLRPELEPYKHRIAEVYAEVLGVKTVLRKGHIHGETRKPDYELLYGSDTVTVHVENGIKYKLDVAKIMFSPANVKERVRMAKVAKPDELVVDMFAGIGHLSLPIAVYGKAKVIAIEKDPYTFKFLVENIHLNKVEDRMSAYNMDNRDFPGENIADRILMGYVVRTHEFIPKALSIAKDGAIIHYHNTVPEKLMPREPFETFKRITKEYGYDVEKLNELKIKRYAPGVWHVVLDLRVFKS”: the “soluble on expression in E. coli” value is “soluble”.
For the sequence “MGSSHHHHHHSSGLVPRGSEVVIVSATRTPIGSFLGSLSLLPATKLGSIAIQGAIEKAGIPKEEVKEAYMGNVLQGGEGQAPTRQAVLGAGLPISTPCTTINKVCASGMKAIMMASQSLMCGHQDVMVAGGMESMSNVPYVMNRGSTPYGGVKLEDLIVKDGLTDVYNKIHMGSCAENTAKKLNIARNEQDAYAINSYTRSKAAWEAGKFGNEVIPVTVTVKGQPDVVVKEDEEYKRVDFSKVPKLKTVFQKENGTVTAANASTLNDGAAALVLMTADAAKRLNVTPLARIVAFADAAVEPIDFPIAPVYAASMVLKDVGLKKEDIAMWEVNEAFSLVVLANIKMLEIDPQKVNINGGAVSLGHPIGMSGARIVGHLTHALKQGEYGLASICNGGGGASAMLIQKL”, the “soluble on expression in E. coli” value is reported as “soluble”.
Then “MGSSHHHHHHSSGLVPRGSHMANVAIIGTEKSGRTSLAANLGKKGTSSDITMYNNDKEGRNMVFVDAHSYPKTLKSLITALNISDIAVLCIPPQGLDAHTGECIIALDLLGFKHGIIALTRSDSTHMHAIDELKAKLKVITSGTVLQDWECISLNTNKSAKNPFEGVDELKARINEVAEKIEAENAELNSLPARIFIDHAFNVTGKGCVVLGVVKQGISKDKDKTKIFPLDRDIEIRSIQSHDVDIDSAPAGTRVGMRLKNVQAKDIERGFIISDKEIVTTDYTLECTVSKFTKKIEPASVLHLFVGLQSEPVRVEKILVDGNEVEEAKPGSTCVLELSGNKKLAYSKQDRFLLANLDLTQRFAAYGFSK”, with “soluble”; and “MGSSHHHHHHSSGLVPRGSHMASKNVSIIGSPLAAGQPLGGVQLACDDLRKLGLHNVIDVLGWKYEDIGNIDNGDNEMKQEKKTNNYINNNDNNNDNNNDNNNDNNNNCYIPNGVIKEKKHDLSNNKMNGYVNHNFYGNYEENNVISTNDKYKNNCYYDNIRNIKEIGIFSKNLFDTMSNELRKKNFVLNIGGDHGVAFSSILSSLQMYQNLRVIWIDAHGDINIPETSPSGNYHGMTLAHTLGLFKKKVPYFEWSENLTYLKPENTAIIGIRDIDAYEKIILKKCNINYYTIFDIEKNGIYNTICTALEKIDPNSNCPIHISLDIDSVDNVFAPGTGTVAKGGLNYREINLLMKILAETKRVVSMDLVEYNPSLDEVDKKVHGDSLPILDNATKTGKLCLELIARVLGYDIV”, with “soluble”; and “MGSSHHHHHHSSGLVPRGSHMASNPNDDMPVDKILEAELISDPKVEQVVPFEQVNENDPVSNICKAADRQLVTLVEWAKRIPHFSSLPLEDQVILLRAGWNELLIASFSHRSIDVKDSILLASGLHVHRHSAHQAGVGPIFDRVLTELVSKMRDMMMDKTELGCLRAVVLFNPDVKNPSDSAHIESLREKVYASLEAYCRSKYPDQPGRFAKLLLRLPALRSIGLKCLEHLFFFKLIGDTPIDKFLMNMLETTSDFPV”, with “soluble”.
As to “MGSSHHHHHHSSGLVPRGSHMEGRLLLLETPGNTRMSLAYDEAIYRSFQYGDKPILRFYRHDRSVIIGYFQVAEEEVDLDYMKKNGIMLARRYTGGGAVYHDLGDLNFSVVRSSDDMDITSMFRTMNEAVVNSLRILGLDARPGELNDVSIPVNKKTDIMAGEKKIMGAAGAMRKGAKLWHAAMLVHTDLDMLSAVLKVPDEKFRDKIAKSTRERVANVTDFVDVSIDEVRNALIRGFSETLHIDFREDTITEKEESLARELFDKKYSTEEWNMGLLRKEVV”, the “soluble on expression in E. coli” value was “soluble”.
Regarding “MGSSHHHHHHSSGLVPRGSHMHSVVQSVTDRIIARSKASREAYLAALNDARNHGVHRSSLSCGNLAHGFAACNPDDKNALRQLTKANIGIITAFNDMLSAHQPYETYPDLLKKACQEVGSVAQVAGGVPAMCDGVTQGQPGMELSLLSREVIAMATAVGLSHNMFDGALLLGICDKIVPGLLIGALSFGHLPMLFVPAGPMKSGIPNKEKARIRQQFAQGKVDRAQLLEAEAQSYHSAGTCTFYGTANSNQLMLEVMGLQLPGSSFVNPDDPLREALNKMAAKQVCRLTELGTQYSPIGEVVNEKSIVNGIVALLATGGSTNLTMHIVAAARAAGIIVNWDDFSELSDAVPLLARVYPNGHADINHFHAAGGMAFLIKELLDAGLLHEDVNTVAGYGLRRYTQEPKLLDGELRWVDGPTVSLDTEVLTSVATPFQNNGGLKLLKGNLGRAVIKVSAVQPQHRVVEAPAVVIDDQNKLDALFKSGALDRDCVVVVKGQGPKANGMPELHKLTPLLGSLQDKGFKVALMTDGRMSGASGKVPAAIHLTPEAIDGGLIAKVQDGDLIRVDALTGELSLLVSDTELATRTATEIDLRHSRYGMGRELFGVLRSNLSSPETGARSTSAIDELY”, the “soluble on expression in E. coli” value is “soluble”.
In the case of “MGSSHHHHHHSSGLVPRGSHMKPVLTVYTYDSFAADWGPGPVVKKAFEADCNCELKLVALEDGVSLLNRLRMEGKNSKADVVLGLDNNLLDAASKTGLFAKSGVAADAVNVPGGWNNDTFVPFDYGYFAFVYDKNKLKNPPQSLKELVESDQNWRVIYQDPRTSTPGLGLLLWMQKVYGDDAPQAWQKLAKKTVTVTKGWSEAYGLFLKGESDLVLSYTTSPAYHILEEKKDNYAAANFSEGHYLQVEVAARTAASKQPELAQKFLQFMVSPAFQNAIPTGNWMYPVANVTLPAGFEKLTKPATTLEFTPAEVAAQRQAWISEWQRAVSR”, the “soluble on expression in E. coli” value is reported as “soluble”.
